{"source": "paper PMC10175485", "about": "“Detecting recurrent passenger mutations in melanoma by targeted UV damage sequencing”", "binders": {"B1": {"name": "STK19 D89 oligonucleotide (STK19-RVS/STK19-FWD) (dsDNA)", "DNA 1": "CCTGAAAATAGGGTCTTCCGGCGCAGAGCA", "DNA 2": "TGCTCTGCGCCGGAAGACCCTATTTTCAGG"}}, "biological_target": "T1, ETS1 DNA-binding domain (Ets-1 ΔN280) (Mus musculus (murine), UniProt P27577 281-440, del1-280)", "T1 sequence": "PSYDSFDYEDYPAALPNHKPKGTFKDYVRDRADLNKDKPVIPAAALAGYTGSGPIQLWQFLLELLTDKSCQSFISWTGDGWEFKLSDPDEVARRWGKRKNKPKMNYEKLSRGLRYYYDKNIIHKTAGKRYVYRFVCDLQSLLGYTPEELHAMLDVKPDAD", "assay": "EMSA; not stated in the material (as described previously, ref 25)", "conditions": "protein: recombinant; tags: C-terminal His6 removed by thrombin; label: 5' 32P on strand 1 (STK19-RVS); 5' biotin on strand 2 (STK19-FWD); blunt", "data": [{"binder": "B1", "values": [{"measurement": "binding result", "value": "binds"}]}]}
